Measured values published in the supplement of paper PMC9170038.

Assays:
MS2 coat protein = assay: apparent KD of MS2 coat protein; higher = weaker reporter binding; details: Eterna round: R107
Experimental: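 RNA-MaP round R107: designed RNA switches with theophylline, tryptophan, arginine or FMN aptamers are transcribed on-chip within common flanks. They are titrated with SNAP-549-labelled MS2 coat protein in RNA-MaP buffer (100 mM Tris pH 7.5, 80 mM KCl, 4 mM MgCl2), without ligand or with the indicated ligand. Median apparent KD per design.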

[1] = test system: K4 kissing-loop RNA reporter; assay: apparent KD of K4 kissing-loop reporter; higher = weaker reporter binding; details: Eterna round: R107;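 note: bound reporter read as fluorescence of individual clusters on recovered sequencing chips by microscopy, with normalized cluster intensities fitted with a binding model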
Experimental: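 RNA-MaP round R107: designed RNA switches with theophylline, tryptophan, arginine or FMN aptamers are transcribed on-chip within common flanks. They are titrated with a labelled K4 kissing-loop RNA reporter in RNA-MaP buffer (100 mM Tris pH 7.5, 80 mM KCl, 4 mM MgCl2), without ligand or with the indicated ligand. Median apparent KD per design.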

[2] = input ligand: theophylline 20 uM
[3] = input ligand: theophylline 2 mM
[4] = input ligand: tryptophan 2.4 mM

Sequence | apparent KD of MS2 coat protein (MS2 coat protein; input ligand: arginine 13.2 mM) [nM] | apparent KD of MS2 coat protein (MS2 coat protein; input ligand: none) [nM] | apparent KD of MS2 coat protein (MS2 coat protein; [2]) [nM] | apparent KD of MS2 coat protein (MS2 coat protein; [3]) [nM] | apparent KD of MS2 coat protein (MS2 coat protein; [4]) [nM] | apparent KD of K4 kissing-loop reporter ([1]; input ligand: FMN 200 uM) [nM] | apparent KD of K4 kissing-loop reporter ([1]; input ligand: arginine 13.2 mM) [nM] | apparent KD of K4 kissing-loop reporter ([1]; input ligand: none) [nM] | apparent KD of K4 kissing-loop reporter [1, 2] [nM] | apparent KD of K4 kissing-loop reporter [1, 4] [nM]
CAAAAUAUCGGAAGGAGCGCGGGUAGGCGGGUUGGAUCACAUGAGGAUCACCCAUGUAAAUCGCAGGUAGGUCGCCGAUAACGCG [XArg-B27] | 52.9 | 19.9 | 60.4 | 37.9 | 30.1 |  |  |  |  | 
UGGUACAUGGCGGCCGCCACUUCACGUAAAAUAAAAGCGUGAGGAUCACCCAUGCAAUAAGUUGGGAGGACCGGGUCAUGUACCU | 311 | 287 | 633 | 387 | 244 |  |  |  |  | 
AAACGCCACGGAAGGAGCGACAUGAGGAUCACCCAUGUAGUUUUGGCGGAUGCACCCUCCUGUCAGGUAGGUCGCCGUGCGAUAA [XArg-B26] | 32.6 | 35.8 | 71.8 | 68.5 | 33.4 |  |  |  |  | 
GGUCUCGAGGGCGAUACCAGCUUGAUCGUACUGGCCUGGUACAUGAGGAUCACCCAUGUAAGCCCUUGGCAGCGCGCUCGAGACC [#1 Exclusion - Theophylline B Attempt #6 (HarryS)] | 7.85 | 11 | 18.5 | 29.3 | 17 |  |  |  |  | 
GUCUUGGAAUCGGCCGCCACUACAUGAGGAUCACCCAUGUGGACAAAUAGGGUUUUUAAGCUCGGUAGGACCGGGAUUCGGACAU [Mamaon] | 12.3 | 14.3 | 15.9 | 18 | 66 |  |  |  |  | 
AUUGACGUUGCGGCCGCCACUAGGCGUUCCCGGACAUGAGGAUCACCCAUGUGCUAGAGUGUAACUAGGACCGGGUAACCUCAGC [Verevean] | 124 | 103 | 290 | 260 | 176 |  |  |  |  | 
GGGCGAGUGGACCGGCGUGCUCCGCUCCGUCGAGGACCGGUACGGCCGCCACUCGACAUGAGGAUCACCCAUGUGCGAGCUCGCG [#1 Exclusion - Tryptophan A Attempt #14 (HarryS)] | 32.7 | 77.5 | 114 | 82.4 | 86 |  |  |  |  | 
AGGUACGGAAUCCUCAUGUAGUCGUACCAACGAGGACCGGUACGGCCGCCACUCGAAUAAACAUGAGGAUCACCCAUGUAAUAAU [T''-M-T'-T-MS2] | 17.6 |  | 97.3 | 90.1 |  |  |  |  |  | 
UACUUGCUGACGGCCGCCACUAGAACAUGAGGAUCACCCAUGUAUCUAGUGGCAAUCCUCAUGACUAGGACCGGGUCAGCAAGAU [(Trp1)-(Ms2)-(T)'-(M)'-(Trp2)_Design1] | 8.26 |  | 10.4 | 9.58 |  |  |  |  |  | 
UAGAGAUCGAGAAGGAGCGAGAAAGCUAGUACAUAUGUACUAGCAAAGCAGUGAUGUUGCACUCAGGUAGGUCGCUCGAUCUCAU [AK1.1 SS Arginine B] |  |  |  |  |  | 337 | 267 | 366 | 432 | 305
CGCGUGGGUUUGAGAGGGUUUGCGCGAAGUGAGGAUAUUUAGGGAGAAAGAAGGCACUAUAAAAUAUAGUGAUGUUAUAUAAGGG [SSFMNA.J] |  |  |  |  |  | 877 | 186 | 170 | 242 | 126
CCUUCUCUUGAUAGUGAUGUUGUCGAGGACAAGGAUAUCAUCUCAAUGAGAAGGUGUCCUUGAUAACAUGGAGGUCUGAAACAGA [Omei KL FMN A Exc C v10] |  |  |  |  |  | 468 | 394 | 333 | 365 | 420
UGACUGGACUGAAGGAGCGCUAAAACUCCUAGUGAUGUUAGGAAAACGAGACAAAGUCUCGAGCAGGUAGGUCGCAGUCUAGUCU [ArgBS 21 #SwitchBubble #StaticStem] |  |  |  |  |  | 142 | 119 | 131 | 148 | 128
GCUCGUCAUGUCAGCGGUGGUACUGUCGAUACCAGUGCCGUAAGGCGCCCUUGGCAGCGAUGCGCUGGAGUGAUGUUCCAGCGUU [#2 Exclusion - Theophylline A Attempt #32 (HarryS)] |  |  |  |  |  | 110 | 92.9 | 116 | 120 | 119
AUACGUUUAAGUGAUACCAGACUGGUGAGUGAUGUUUACCAAUAAAUUAAAUUAUUAGCUGUCCCUUGGCAGCACAGUUUAUUUA [JR_ExcTheophyB_Sub005] |  |  |  |  |  | 258 | 330 | 317 | 323 | 229
UGUACCGAGUCAGGAUAUGGCGUCGAAAGACGAAAACCAGUGAUGUUGGAAAUCUGCGAAAGCAGUCCAGAAGGGACUUGGUACU [FmnBS 25 #SwitchBubble #StaticStem #DoubleMagnetSystem] |  |  |  |  |  | 199 | 233 | 266 | 251 | 251
GGUAGCAUGGCGGCCGCCACUCGGACGACAUAGCACAUGUCGACCAGUGAUGUUGGUUCAAACACGAGGACCGGGCCAUGCUACC |  |  |  |  |  | 724 | 715 | 798 | 629 | 135
AAGAGGUAGGCGGCCGCCACUAGUUGUGAACACAUACGAGCCAGUGAUGUUGGUAUGGUGGGCGGUAGGACCGGGCCUACCUGAA [Exclusion - Tryptophan B (Freestyle 18)] |  |  |  |  |  | 427 | 481 | 496 | 454 | 475
GCCGUACGCAUGGAUACCAGCGUACGUCACCUAGCAGUGAUGUUGCUAUUGCCACGUAAACGCCCUUGGCAGCCAUGCGUACGGC |  |  |  |  |  | 495 | 448 | 478 | 181 | 445
AGCGAUGUUUUCUCUAAGAGUGAUGUUUUUCGAGGACCGGUACGGCCGCCACUCGAAUAAAGUGUGCGGUAGUGAGCUGUUGACA [#18 K4 Tryptophan A Exclusion] |  |  |  |  |  | 710 | 550 | 747 | 580 | 718
